Here are results for one molecule from paper PMC4002904.

Assay [1] deals with GAL4 DNA-binding domain fused N terminal 47 amino acids of HBSP (Hepatitis B virus). The assay can be described thus: two-hybrid; CheckMate mammalian two-hybrid in Huh-7 cells; pACT-EPHX1(353-455) with pBIND constructs and pG5luc reporter; renilla-normalised firefly luciferase at 48 h, relative to pBIND + pACT set to 1.
For assay [2], the target named is GAL4 DNA-binding domain fused full-length HBSP (Hepatitis B virus). Described as above.

B1: VP16-tagged mEH 353-455 (domain or fragment)
chain: DLLTNVMLYWTTGTIISSQRFYKENLGQGWMTQKHERMKVYVPTGFSAFPFELLHTPEKWVRFKYPKLISYSYMVRGGHFAAFEEPELLAQDIRKFLSVLERQ
On to B1, for which the fold luciferase activity over the negative control is 12 fold in assay [1] and 9 fold in assay [2].
